Data on 4 variants can be found in IntAct's records for PubMed 15901672.

Sequences and labels used below:
B1: Bcl-2 homologous antagonist/killer (Homo sapiens), Q16611 (parent)
chain: MASGQGPGPPRQECGEPALPSASEEQVAQDTEEVFRSYVFYRHQQEQEAEGVAAPADPEMVTLPLQPSSTMGQVGRQLAIIGDDINRRYDSEFQTMLQHLQPTAENAYEYFTKIATSLFESGINWGRVVALLGFGYRLALHVYQHGLTGFLGQVTRFVVDFMLHHCIARWIAQRGGWVAALNLGNGPILNVLVVLGVVLLGQFVVRRFFKS
B2: Phorbol-12-myristate-13-acetate-induced protein 1 (Homo sapiens), Q13794 (parent)
chain: MPGKKARKNAQPSPARAPAELEVECATQLRRFGDKLNFRQKLLNLISKLFCSGT

In one test the parent is B1. Conditions: with mcl1_mouse Mcl1, P97287.
mcl1_mouse Mcl1, P97287, sequence (P97287 whole entry): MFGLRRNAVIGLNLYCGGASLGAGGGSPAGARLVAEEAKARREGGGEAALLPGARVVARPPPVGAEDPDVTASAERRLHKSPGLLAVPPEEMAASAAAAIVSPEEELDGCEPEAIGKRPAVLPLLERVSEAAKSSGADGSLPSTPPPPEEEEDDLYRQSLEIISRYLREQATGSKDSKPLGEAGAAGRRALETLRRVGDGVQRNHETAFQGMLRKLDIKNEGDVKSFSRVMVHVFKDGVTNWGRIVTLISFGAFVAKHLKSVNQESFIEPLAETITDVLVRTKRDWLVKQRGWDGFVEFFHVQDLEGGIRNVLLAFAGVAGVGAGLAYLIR
Turning to L78A, the “effect of a mutation on the interaction” value is on record as “decreasing interaction”.

In another test the parent is B1. Conditions: with mcl1_human MCL1, Q07820.
Target sequence in this assay (Q07820 whole entry): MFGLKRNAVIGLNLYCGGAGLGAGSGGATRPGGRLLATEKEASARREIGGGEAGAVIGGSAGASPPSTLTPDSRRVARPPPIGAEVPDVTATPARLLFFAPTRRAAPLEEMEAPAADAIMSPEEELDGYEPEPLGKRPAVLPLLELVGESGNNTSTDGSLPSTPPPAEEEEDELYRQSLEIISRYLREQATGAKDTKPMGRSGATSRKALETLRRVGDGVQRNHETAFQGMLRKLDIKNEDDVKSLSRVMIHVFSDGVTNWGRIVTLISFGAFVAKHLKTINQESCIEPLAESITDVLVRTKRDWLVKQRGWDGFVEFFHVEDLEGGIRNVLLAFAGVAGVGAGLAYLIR
L78A: the “effect of a mutation on the interaction” value is recorded as “decreasing interaction”.

The variants in the next test derive from B1. Conditions: with bax_human BAX.
As for L78A, the “effect of a mutation on the interaction” value is given as “decreasing interaction”.

In another test the parent is B2. The following applies: with mcl1_human MCL1, Q07820.
Target sequence in this assay (Q07820 whole entry): as above
On to L36E, for which the “effect of a mutation on the interaction” value is “decreasing interaction”.

F32E: the “effect of a mutation on the interaction” value is given as “decreasing interaction”.

Turning to L29E, the “effect of a mutation on the interaction” value is reported as “decreasing interaction”.
